Results: patent US20200332017A1 (SALUBRIS CHENGDU BIOTECH, published 2020)
One block for each binder: values may come before it.

How the values were obtained:
[1] = molecular target: T1, Human CD40-his protein (Acro biosystems, Cat # CD0-H5228) (human, UniProt P25942 21-193); assay: SPR, Biacore; antibody captured, human CD40-his flowed
T1 construct: Bought reagent; not shown: his tag
Excerpt: Briefly, goat anti-mouse IgG (GE healthcare, Cat # BR100838, Mouse Antibody Capture Kit) was covalently linked to a CM5 or a Protein G chip (carboxy methyl dextran coated chip) via primary amines, using a standard amine coupling kit provided by Biacore (GE healthcare, Pittsburgh, Pa., USA). Un-reacted moieties on the biosensor surface were blocked with ethanolamine. […] Then, human CD40-his (Acro biosystems, Cat # CD0-H5228) or cynomolgus monkey CD40-his protein (Acro biosystems, Cat # CD0-052H6) in HBS EP buffer (provided by Biacore) was flowed onto the chip at a flow rate of 30 μL/min. The antigen-antibody association kinetics was followed for 2 minutes and the dissociation kinetics was followed for 10 minutes. The association and dissociation curves were fit to a 1:1 Langmuir binding model using BIA evaluation software.

[2] = molecular target: T2, human CD40-Fc protein (amino acid residue 21-193 of SEQ ID NO: 67 linked to N-terminus of amino acid residue … (human, biotin-labeled in the capture ELISA and in the benchmark blocking ELISA; unlabeled when coated in the ligand blocking ELISA); assay: capture ELISA, biotin human CD40-Fc; mAb at 16 ng/mL
T2 construct: also called biotin-labeled human CD40-Fc; human CD40-Fc-biotin
Method: (§1) Plates were washed 4 times with wash buffer (PBS+0.05% Tween-20, PBST) and then blocked with 200 μl/well blocking buffer (5% w/v non-fatty milk in PBST) for 2 hours at 37° C. […] After a final wash, plates were incubated with 100 μl/well ELISA substrate TMB (Innoreagents, Cat # TMB-S-002). The reaction was stopped in 15 minutes at 25° C. with 50 μl/well 1M H₂SO₄, and the absorbance was read at 450 nm and plotted against antibody concentration. Data were analyzed using Graphpad Prism software and EC₅₀ values were reported.

[3] = molecular target: T2, human CD40-Fc protein (amino acid …); assay: capture ELISA, biotin human CD40-Fc; mAb at 80 ng/mL
Method: as §1

[4] = molecular target: T2, human CD40-Fc protein (amino acid …); assay: capture ELISA, biotin human CD40-Fc; mAb at 3.2 ng/mL
Method: as §1

[5] = molecular target: T2, human CD40-Fc protein (amino acid …); assay: capture ELISA, biotin human CD40-Fc; mAb at 400 ng/mL
Method: as §1

[6] = molecular target: T2, human CD40-Fc protein (amino acid …); assay: capture ELISA, biotin human CD40-Fc; mAb at 0.64 ng/mL
Method: as §1

[7] = molecular target: T2, human CD40-Fc protein (amino acid …); assay: capture ELISA, biotin human CD40-Fc; mAb at 2000 ng/mL
Method: as §1

[8] = molecular target: T2, human CD40-Fc protein (amino acid …); assay: capture ELISA, biotin human CD40-Fc; mAb at 10000 ng/mL
Method: as §1

[9] = molecular target: T2, human CD40-Fc protein (amino acid …); assay: capture ELISA, biotin human CD40-Fc; mAb at 0 ng/mL (blank)
Method: as §1

[10] = molecular target: T2, human CD40-Fc protein (amino acid …); assay: capture ELISA; antibody captured, biotin-labeled human CD40-Fc in solution
Method: as §1

T1 sequence (P25942 21-193 limits assumed): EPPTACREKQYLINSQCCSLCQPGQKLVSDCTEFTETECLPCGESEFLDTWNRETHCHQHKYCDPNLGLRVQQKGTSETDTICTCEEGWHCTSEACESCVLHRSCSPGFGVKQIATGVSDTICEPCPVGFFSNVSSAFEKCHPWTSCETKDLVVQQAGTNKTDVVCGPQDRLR
T2 sequence (chain, as listed by the source): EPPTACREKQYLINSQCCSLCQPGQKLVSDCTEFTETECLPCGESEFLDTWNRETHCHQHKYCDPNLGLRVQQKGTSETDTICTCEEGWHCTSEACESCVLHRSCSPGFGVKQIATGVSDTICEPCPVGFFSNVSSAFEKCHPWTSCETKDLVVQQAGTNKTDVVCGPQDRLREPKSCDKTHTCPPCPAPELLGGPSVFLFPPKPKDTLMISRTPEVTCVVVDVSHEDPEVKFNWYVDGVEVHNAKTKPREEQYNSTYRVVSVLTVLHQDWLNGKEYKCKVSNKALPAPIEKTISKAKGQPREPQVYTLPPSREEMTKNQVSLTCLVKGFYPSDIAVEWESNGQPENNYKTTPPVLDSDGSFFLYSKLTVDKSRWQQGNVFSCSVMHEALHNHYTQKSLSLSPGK

B1: humanized antibody huC1C1-V6 (antibody, human IgG1, kappa, V domains shown)
VH: EVQLVESGGGVVQPGRSLRLSCAASGFTFSNYGMSWVRQAPGKGLEWVASISSGGDDTYYPDNVKGRCTISRDNSKNTLYLQMNSLRAEDTAVYYCTRAGGKAMDYWGQGTLVTVSS
VL: EIVLTQSPATLSLSPGERATLSCRASQSIRDNLHWYQQKPGQAPRLLIYYASQSISGIPARFSGSGSGTDFTLTISSLEPEDFAVYYCQQFNSWPLTFGQGTKVEIKR
notes: Human IgG1/kappa
Kd [1]: 11.6 nM | koff [1]: 0.00881 s⁻¹ | kon [1]: 763000 M⁻¹ s⁻¹

B2: humanized antibody huC1C1-V1 (antibody, human IgG1, kappa, V domains shown)
VH: EVQLVESGGGVVQPGRSLRLSCAASGFTFSNYGMSWVRQAPGKGLEWVASISSGGDDTYYPDNVKGRCTISRDNSKNTLYLQMNSLRAEDTAVYYCTRAGGKAMDYWGQGTLVTVSS
VL: EIVLTQSPATLSLSPGERATLSCRASQSIRDNLHWYQQKPGQSPRLLINYASQSISGIPARFSGSGSGTDFTLTISSLEPEDFAVYFCQQFNSWPLTFGQGTKVEIKR
notes: Human IgG1/kappa; also called humanized C1C1-V1
absorbance at 450 nm [2]: 0.353 OD450 | absorbance at 450 nm [3]: 1.12 OD450 | absorbance at 450 nm [4]: 0.083 OD450 | absorbance at 450 nm [5]: 1.73 OD450 | absorbance at 450 nm [6]: 0.035 OD450 | absorbance at 450 nm [7]: 1.78 OD450 | absorbance at 450 nm [8]: 1.9 OD450 | absorbance at 450 nm [9]: 0.028 OD450 | EC50 [10]: 0.382 ng/mL

B3: humanized antibody huC1C1-V2 (antibody, human IgG1, kappa, V domains shown)
VH: EVQLVESGGGVVQPGRSLRLSCAASGFTFSNYGMSWVRQAPGKGLEWVASISSGGDDTYYPDNVKGRFTISRDNSKNTLYLQMNSLRAEDTAVYYCTRAGGKAMDYWGQGTLVTVSS
VL: EIVLTQSPATLSLSPGERATLSCRASQSIRDNLHWYQQKPGQSPRLLINYASQSISGIPARFSGSGSGTDFTLTISSLEPEDFAVYFCQQFNSWPLTFGQGTKVEIKR
notes: Human IgG1/kappa
absorbance at 450 nm [2]: 0.3 OD450 | absorbance at 450 nm [3]: 1.02 OD450 | absorbance at 450 nm [4]: 0.073 OD450 | absorbance at 450 nm [5]: 1.62 OD450 | absorbance at 450 nm [6]: 0.029 OD450 | absorbance at 450 nm [7]: 1.72 OD450 | absorbance at 450 nm [8]: 1.82 OD450 | absorbance at 450 nm [9]: 0.027 OD450 | EC50 [10]: 0.428 ng/mL

B6: humanized antibody huC1C1-V3 (antibody, human IgG1, kappa, V domains shown)
VH: EVQLVESGGGVVQPGRSLRLSCAASGFTFSNYGMSWVRQAPGKGLEWVASISSGGDDTYYPDNVKGRCTISRDNSKNTLYLQMNSLRAEDTAVYYCTRAGGKAMDYWGQGTLVTVSS
VL: EIVLTQSPATLSLSPGERATLSCRASQSIRDNLHWYQQKPGQAPRLLINYASQSISGIPARFSGSGSGTDFTLTISSLEPEDFAVYFCQQFNSWPLTFGQGTKVEIKR
notes: Human IgG1/kappa
absorbance at 450 nm [2]: 0.357 OD450 | absorbance at 450 nm [3]: 1.15 OD450 | absorbance at 450 nm [4]: 0.083 OD450 | absorbance at 450 nm [5]: 1.72 OD450 | absorbance at 450 nm [6]: 0.032 OD450 | absorbance at 450 nm [7]: 1.71 OD450 | absorbance at 450 nm [8]: 1.8 OD450 | absorbance at 450 nm [9]: 0.024 OD450 | EC50 [10]: 0.336 ng/mL

Results, then the binder that gave them:

absorbance at 450 nm [2]: 0.459 OD450 | absorbance at 450 nm [3]: 1.25 OD450 | absorbance at 450 nm [4]: 0.103 OD450 | absorbance at 450 nm [5]: 1.63 OD450 | absorbance at 450 nm [6]: 0.039 OD450 | absorbance at 450 nm [7]: 1.7 OD450 | absorbance at 450 nm [8]: 1.84 OD450 | absorbance at 450 nm [9]: 0.025 OD450 | EC50 [10]: 0.267 ng/mL
B4: humanized antibody huC1C1-V4 (antibody, human IgG1, kappa, V domains shown)
VH: EVQLVESGGGVVQPGRSLRLSCAASGFTFSNYGMSWVRQAPGKGLEWVASISSGGDDTYYPDNVKGRCTISRDNSKNTLYLQMNSLRAEDTAVYYCTRAGGKAMDYWGQGTLVTVSS
VL: EIVLTQSPATLSLSPGERATLSCRASQSIRDNLHWYQQKPGQSPRLLIYYASQSISGIPARFSGSGSGTDFTLTISSLEPEDFAVYFCQQFNSWPLTFGQGTKVEIKR
notes: Human IgG1/kappa

absorbance at 450 nm [2]: 0.34 OD450 | absorbance at 450 nm [3]: 1.1 OD450 | absorbance at 450 nm [4]: 0.083 OD450 | absorbance at 450 nm [5]: 1.66 OD450 | absorbance at 450 nm [6]: 0.033 OD450 | absorbance at 450 nm [7]: 1.68 OD450 | absorbance at 450 nm [8]: 1.77 OD450 | absorbance at 450 nm [9]: 0.027 OD450 | EC50 [10]: 0.355 ng/mL
B5: humanized antibody huC1C1-V5 (antibody, human IgG1, kappa, V domains shown)
VH: EVQLVESGGGVVQPGRSLRLSCAASGFTFSNYGMSWVRQAPGKGLEWVASISSGGDDTYYPDNVKGRCTISRDNSKNTLYLQMNSLRAEDTAVYYCTRAGGKAMDYWGQGTLVTVSS
VL: EIVLTQSPATLSLSPGERATLSCRASQSIRDNLHWYQQKPGQSPRLLINYASQSISGIPARFSGSGSGTDFTLTISSLEPEDFAVYYCQQFNSWPLTFGQGTKVEIKR
notes: Human IgG1/kappa; also called humanized C1C1-V5
